# Measurements as given in PMC9278964.
# Like-named read-outs stand apart in the source and are kept apart here.
# Experiments:
# [1] = molecular target: biotinylated PD-L1 (Homo sapiens (assumed)) (UniProt Q9NZQ7); experiment: ELISA
# [2] = molecular target: biotinylated PD-L1 (Homo sapiens (assumed)) (UniProt Q9NZQ7); experiment: ELISA; remark: listed apart in the source
# Chain of UniProt Q9NZQ7 (Q9NZQ7 19-290): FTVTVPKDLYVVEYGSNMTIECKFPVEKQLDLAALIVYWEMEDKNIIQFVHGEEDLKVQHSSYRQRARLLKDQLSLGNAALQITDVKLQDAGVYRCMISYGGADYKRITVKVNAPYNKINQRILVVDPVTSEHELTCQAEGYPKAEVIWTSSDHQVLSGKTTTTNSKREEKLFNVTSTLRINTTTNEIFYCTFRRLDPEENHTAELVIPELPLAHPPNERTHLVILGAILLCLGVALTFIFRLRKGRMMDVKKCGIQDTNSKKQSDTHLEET
substance,measurement,setting,value
avelumab (antibody),EC50,[1],0.098 nM
same,EC50,[2],0.015 nM
